Binding data for 9 sequences are collected here from paper PMC8531726.

The data set relates to T1, Zur (Pseudomonas aeruginosa), ORF:f39b2fc0.
T1 sequence: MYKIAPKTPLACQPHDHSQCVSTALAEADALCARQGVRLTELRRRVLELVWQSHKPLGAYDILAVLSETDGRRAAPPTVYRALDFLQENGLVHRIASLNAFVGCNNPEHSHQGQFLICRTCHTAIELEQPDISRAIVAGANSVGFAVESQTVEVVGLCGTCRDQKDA
Kind of data set: EMSA. The settings on record: EMSA: 30 ng DNA, 500 nM Zur, 5X Zn-less binding buffer (50 mM Tris, 200 mM KCl, 50 mM MgCl2, 5 mM DTT, 25% glycerol; 5X [sic], pH not given), 5 uM ZnCl2 ….

Regarding “CTCTGCCAGACCAGTTCCAGCACGCGCCGCCGCAGTTCGGTCAGGCGCACGCCCTGGCGCGCGCACAGCGCATCGGCCTCGGCCAGCGCGGTGCTGACGCACTGGCTGTGGTCATGGGGCTGGCAGGCCAGCGGGGTCTTGGGCGCAATCTTGTACATGGGCTGCGACGCTCGAGGGTAGAGACGTTATTATATTACCCGCTAACCACCTTTCA (double strand) [pznuA]”, the binding entry is “binds”.

“ACTTTCCCGTTCCTCTTCGCCGGCAGGCATGCGGACATTGCCGCTGCACGTCGGCACGACGCCATGCAGAGTGGCTACGCGGGTCTACCGACACAAAAAGAAATAATATAACATCCCAATAAATACGCCGATCCGACCCCGTCGCCCTTCCTCCGGGAAGGGCCTGGGTTCGCTTTGGCCTGAAAAAAGTCCGACCCA (double strand) [pznuD]”: the binding result was “binds”.

“ATGGGCCTGGGCGGCGAACGGCAGCAAGACGAGGGCTAACAGCAGTGGGCGCATGAACGGGACTCCGGCAAGGAAGGAAAAGAGTTTGTTACGTTATAACGAATTTTTCCGCCTGCCTAGCCTGGCCGATTTGGCCCCTACGCGCCGACGTGGGAGCATGGCGCGATTCGCTTGTGGAGAAAC (double strand) [pPA4063]”: the binding entry is “binds”.

On to “CATAGCAGGCCGGCGTGAAGAAAATGTGATGACCCGGGAAGCTGCGCCAGGGCGTGGGGTCCGGCGAAGAAAGACTGCACAAGCGAATTGTTATAGTATAACATTTTATTCAATCCAGATCGTTCAAGGCTTGACTGGAAACGGTGCGGATGTTCCCATCCGGCCCGTTCCAGGTGCCTCCTGCCGCCGCGCAGGAGGTGAAACGGGAAGCCGGTGCGTCACTTCGGTGA (double strand) [pPA2911]”, for which the binding result is “binds”.

On to “GAGCGCCATGATCTGCTCGGTTGCGGTCATCTTTCCTCCTGGGGGGCATGCCCGGTTGAGAGTGGGGTCCTGTGCTTCGAGGGATACGGCGAGCGAGACGTTCCCTCGCCTCGATGAAGAAGAAACGGCGGGCATTCTTCATTCGAAGAAATGTTATGTTATAACTTATAAGTATTTATAATTCATACCTGCCGACCATGACCCCCCATTCCTCCCCGCACCGTCTTCCTCCGCTGCGGCTGGCCCGCGCCGTGCCGTTCCTCTACCTGCTTC (double strand) [pPA1922]”, for which the binding result is reported as “binds”.

Regarding “AGAAGTCCTGCTGGGCTTCGTCCATGTAGGCAGCGTCGGGCTGGGCAAGCAGTTCCTGTTCGGTCATGGGCTGAACCTGGGAAATTTAAAACGTTATACTATAACAATTAACACCACAATCGATGGCCCGCCAATCGCCTTCCGGCTACCCTGGGCCCACGTCATCCCGGGATCCACCGATGCGCCGCGTCCTCCGCCTTTACT (double strand) [pdksA2]”, the binding result is on record as “binds”.

For “GTGCTGCACACAGACTCTCGTCTTCCAGTCAAGAGCCTTGGGATGCAGACTGTTTTTCAAATCATGACAACTTCTTAACGCGCATTGTTATAAAGTTGCGGGCGTTTGCGCCGGCCTGGCCGGTACCTTCGAGTTTTGCCTGGAGTGAAGATGAGAGTCGACCTGGAC (double strand) [pPA2439]”, the binding entry is recorded as “binds”.

Take “GGCTGGGCTGGTCGTCGGAAAAGAGGGATGAGTATCACAGCCTGGCGGCGAGAAGCGAGATAGAGCCGGGCATTGTATTGCGAGGCCGGAATCGAACTGGTAGCGTTATAGTATATCATTTCTTTTCTGGTGCGATTTCCCATGAGAGTCAGTGTGTCGCTTGTCCTCGGTGTCGGCCTCGGTTGCAGCAGTCCGGCGCTCTGGGCGGAAACGGAAAGTCCCGCGG (double strand) [pzrmA]”: the binding result is “binds”.

As for “TCGAGCAGCCGAATGGTCGCCGGGAACTCTTTCCGGAGTTGCGAATTATTCTTATCGGAGTAATATGTAACTATATAACATTATGTAGGAGGCATCCCCATGAAACCCGGCATCCATCCCGAATACCGTCCCGTCCTGTTCCATGACACCTCGGCCGACGTGTACTTCCTGATCGGCTCCACC (double strand) [prpmE2]”, the binding entry is “binds”.
